One experiment has as its target LC3‐GFP, Q9GZQ8. As to the kind of experiment: co-immunoprecipitation (anti-GFP agarose) with quantified immunoblot. The settings on record: chain shown with the change; HeLa cells co-transfected with LC3-GFP and DISC1-Flag constructs; parent: 1.0; read off a plot.
The target in experiment [1] is Purified recombinant LC3 protein, Q9GZQ8. In words: ELISA. The following applies: chain shown with the change, read off a plot. (In general: An ELISA detects its analyte on a solid surface through an enzyme-linked reagent.)

Where a chain is given by its changes, count along the chain named. Numbers in names are those of the source.

B1: Disrupted‐in‐schizophrenia‐1 (DISC1)‐Flag, wild type, Q9NRI5 F210A; S211A; F212A; I213A (protein)
chain: MPGGGPQGAPAAAGGGGVSHRAGSRDCLPPAACFRRRRLARRPGYMRSSTGPGIGFLSPAVGTLFRFPGGVSGEESHHSESRARQCGLDSRGLLVRSPVSKSAAAPTVTSVRGTSAHFGIQLRGGTRLPDRLSWPCGPGSAGWQQEFAAMDSSETLDASWEAACSDGARRVRAAGSLPSAELSSNSCSPGCGPEVPPTPPGSHSAFTSSAAAARLSLGSAGERGEAEGCPPSREAESHCQSPQEMGAKAASLDGPHEDPRCLSRPFSLLATRVSADLAQAARNSSRPERDMHSLPDMDPGSSSSLDPSLAGCGGDGSSGSGDAHSWDTLLRKWEPVLRDCLLRNRRQMEVISLRLKLQKLQEDAVENDDYDKAETLQQRLEDLEQEKISLHFQLPSRQPALSSFLGHLAAQVQAALRRGATQQASGDDTHTPLRMEPRLLEPTAQDSLHVSITRRDWLLQEKQQLQKEIEALQARMFVLEAKDQQLRREIEEQEQQLQWQGCDLTPLVGQLSLGQLQEVSKALQDTLASAGQIPFHAEPPETIRSLQERIKSLNLSLKEITTKVCMSEKFCSTLRKKVNDIETQLPALLEAKMHAISGNHFWTAKDLTEEIRSLTSEREGLEGLLSKLLVLSSRNVKKLGSVKEDYNRLRREVEHQETAYETSVKENTMKYMETLKNKLCSCKCPLLGKVWEADLEACRLLIQSLQLQEARGSLSVEDERQMDDLEGAAPPIPPRLHSEDKRKTPLKVLEEWKTHLIPSLHCAGGEQKEESYILSAELGEKCEDIGKKLLYLEDQLHTAIHSHDEDLIQSLRRELQMVKETLQAMILQLQPAKEAGEREAAASCMTAGVHEAQA
B1: the ratio to parent with LC3‐GFP, Q9GZQ8 worked out at 0.21.

B2: Disrupted‐in‐schizophrenia‐1 (DISC1)‐Flag, wild type, Q9NRI5 Y646A; N647A; R648A; L649A (protein)
chain: B1 chain with A210F, A211S, A212F, A213I, Y646A, N647A, R648A, L649A
Consider B2, for which the ratio to parent in the experiment with LC3‐GFP, Q9GZQ8 stood at 1.1.

B3: Disrupted‐in‐schizophrenia‐1 (DISC1)‐Flag, wild type, Q9NRI5 W327A; D328A; T329A; L330A (protein)
chain: B1 chain with A210F, A211S, A212F, A213I, W326A, D327A, T328A, L329A
In the case of B3, the ratio to parent with LC3‐GFP, Q9GZQ8 turned out to be 0.9.
For PGSHSAFTSSAAAARLSLGS [DISC1 FSFI peptide (a.a.200–219) F210A; S211A; F212A; I213A], the response is 0.1 OD (450 nm) in experiment [1] (LC3B 10 nM, parent: est. 0.68); 0.12 OD (450 nm) in experiment [1] (LC3B 50 nM, parent: est. 1.3); 0.12 OD (450 nm) in experiment [1] (LC3B 100 nM, parent: est. 2.4).

The values are drawn from article PMC6351828.
